According to US20150166663A1 (AstraZeneca / MedImmune, published 2015):
Positions count from the first letter of the chain named.

T1: cynomolgus β6 on transfected HEK-293 cells (cynomolgus)
T1 chain: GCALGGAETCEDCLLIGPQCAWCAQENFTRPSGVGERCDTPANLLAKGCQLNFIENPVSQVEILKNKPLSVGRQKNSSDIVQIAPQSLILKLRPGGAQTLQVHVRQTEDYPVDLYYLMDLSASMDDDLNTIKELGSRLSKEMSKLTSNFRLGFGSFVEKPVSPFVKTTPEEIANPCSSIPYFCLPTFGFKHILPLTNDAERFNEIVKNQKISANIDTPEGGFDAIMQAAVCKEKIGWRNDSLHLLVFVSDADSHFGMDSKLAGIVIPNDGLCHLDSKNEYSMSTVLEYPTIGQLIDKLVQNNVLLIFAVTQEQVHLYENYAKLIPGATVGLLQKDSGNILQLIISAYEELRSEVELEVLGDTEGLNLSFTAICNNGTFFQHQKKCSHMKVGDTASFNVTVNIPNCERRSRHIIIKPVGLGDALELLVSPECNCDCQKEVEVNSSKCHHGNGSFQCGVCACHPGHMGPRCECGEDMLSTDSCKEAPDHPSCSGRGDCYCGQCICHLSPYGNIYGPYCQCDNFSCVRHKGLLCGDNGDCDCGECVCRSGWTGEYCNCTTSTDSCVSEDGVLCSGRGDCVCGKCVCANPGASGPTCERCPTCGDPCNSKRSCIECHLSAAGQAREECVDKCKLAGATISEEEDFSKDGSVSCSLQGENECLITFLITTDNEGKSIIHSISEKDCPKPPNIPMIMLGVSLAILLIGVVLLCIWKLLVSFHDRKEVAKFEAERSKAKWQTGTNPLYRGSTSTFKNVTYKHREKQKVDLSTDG

B1: sc 277 (antibody, V domains shown)
VH: EVQLVQSGAEVKKPGESLKISCKGSGYSFPSYWIGWVRQMPGKGLEWMGIIYPGDSDTRYSPSFQGQVTISADKSISTAYLQWSSLKASDTAMYYCARHPMEDGMDVWGQGTTVTVSS
VL: SYELTQPPSVSVSPGQTARITCSGDALPKKYAFWYQQKSGQAPVLVIYDDNKRPSGIPERFSGSSSGTMATLTITGAQVEDEADYYCYSTDSSGHHVFGGGTKLTVL
notes: Fully human XenoMouse mAb
B2: sc 320 (antibody, V domains shown)
VH: EVQLVESGGGLVKPGGSLRLSCAASGYTFTNYIMHWVRQAPGKGLEWVSSISISSSYIYYADSVKGRFTISRDNAKNSLYLQMNSLRAEDTAVYYCARDPVPLERRDYYYGMDVWGQGTTVTVSS
VL: QSVLTQPPSMSAAPGQKVTISCSGSSSNIGNNYVSWYQQLPGTAPKLLIYDNNKRPSGIPDRFSGSKSGTSATLGITGLQTGDEADYYCGTWDSSLSAGVFGGGTKLTVL
notes: Fully human XenoMouse mAb
B3: sc 298 (antibody, V domains shown)
VH: QVQLVESGGGVVQPGRSLRLSCAASGFTFSSYGMHWVRQAPGKGLEWVAVIWYGGSNKYYADSVKGRFTISRDNSKNTLYLQMNSLRAEDTAVYYCARDLAARRGDYYYYGMDVWGQGTTVTVSS
VL: SSELTQDPVVSVALGQTVRITCQGDSLRSYYLSWYQQKPGQAPVLVIYGKNNRPSGIPDRFSGSNSGNTASLTITGAQAEDEADYYCNSRDSSGNHLFGGGTKLTVL
notes: Fully human XenoMouse mAb
B4: sc 374 (antibody, V domains shown)
VH: B3 VH with G54D, D99T, L100E, A101G, A102I, R103A, R104A, G105R, D106L
VL: not shown
notes: Fully human XenoMouse mAb
B5: sc 133 (antibody, V domains shown)
VH: QVQLVQSGAEVKKPGASVKVSCKASGYTFTGYYMHWVRQAPGQGLEWMGWINPKSGDTNYAQKFQGRVTLTRDTSTSTAYMELSRLRSDDTAVYYCARRLDVWGQGTTVTVSS
VL: QSVLTQPPSVSAAPGQKVTISCSGSSSNIGNNYVSWYQQLPGTAPKLLIYDNNKRPSGIPDRFSGSKSGTSATLGITGLQTGDEADYYCGTWNSSLSAGYVFGTGTKVTV
notes: Fully human XenoMouse mAb
B6: sc 188 (antibody, V domains shown)
VH: QVQLQESGPGLVKPSQTLSLTCTVSGGSISSGVYYWTWIRQHPGNGLEWIGYIYYSGSTSYNPSLKSRVTISVDTSKKQFSLNLTSVTAADTAVYYCAREGPLRGDYYYGLDVWGQGTTVTVSS
VL: EIVLTQSPGTLSLSPGERATLSCRAGQTISSRYLAWYQQKPGQAPRPLIYGASSRATGIPDRFSGSGSGTDFTLTISRLEPEDFAVYYCQQYGSSPRTFGQGTKVEIK
notes: Fully human XenoMouse mAb; Has a glycosylation site (NLT) in heavy chain FR3
B7: sc 188 SDM (antibody, V domains shown)
VH: B6 VH with N83K
VL: B6 VL
B8: sc 254 (antibody, V domains shown)
VH: QVQLQESGPGLVKPSQTLSLTCTVSGGSISSGGYYWSWIRQHPGKGLEWIGYIYYSGSTYYNPSLKSRVTISVDTSKNQFSLKLSSVTAADTAMYYCARYRGPAAGRGDFYYFGMDVWGQGTTVTVSS
VL: DIVMTQTPLSLSVTPGQPASIFCKSSQSLLNSDGKTYLCWYLQKPGQPPQLLIYEVSNRFSGVPDRFSGSGSGTDFTLKISRVEAEDVGVYYCMQGIQLPWAFFGQGTKVEIK
notes: Fully human XenoMouse mAb
B9: sc 49 (antibody, V domains shown)
VH: QVQLQESGPGLVKPSQTLSLTCTVAGGSIRSGDYYWSWIRQHPGKGLEWIGNIYYSGSTYYNPSLKSRITISVATSRNQFSLKLTSVTAADTAVYYCARGGAITIFGVFDYWGQGTLVTVSS
VL: not shown
notes: Fully human XenoMouse mAb; also called sc 049
B10: sc 161 (antibody, V domains shown)
VH: EVQLVQSGAEVKKPGESLKISCKGSGYSFTSYWIGWVRQMPGKGLEWMGIIYPGDSDTRYSPSFQGQVTISADKSISTAYLQWSSLKASDTAMYYCARHGIAAAGFYYYYMDVWGQGTTVTVSS
VL: EIVLTQSPDTLSLSPGERASLSCRASQNVNRNYLVWYQQKPGQAPRLLIYGTSNRATGIPDRFSGSGSGTDFTLTISRLEPEDFAVYYCQQCGSLPFTFGPGTKVDIKR
notes: Fully human XenoMouse mAb
B11: sc 264 (antibody, V domains shown)
VH: QVQLQESGPGLVKPSQTLSLTCTVSGGSISSGGYYWSWIRQHPGKGLEWIGYIYYSGRTYNNPSLKSRVTISVDTSKNQFSLKLSSVTAADTAVYYCARVATGRGDYHFYAMDVWGQGTTVTVSS
VL: SYELTQPSSVSVSPGQTARITCSGDVLAKKSARWFHQKPGQAPVLVIYKDSERPSGIPERFSGSSSGTTVTLTISGAQVEDEAAYYCYSAADNNLVFGGGTKLTVL
notes: Fully human XenoMouse mAb; Has RGD in heavy chain CDR3
B12: sc 264 RAD (antibody, V domains shown)
VH: B11 VH with G105A
VL: B11 VL
B13: sc 97 (antibody, V domains shown)
VH: EVQLVQSGAEVKKPGESLKISCKGSGYSFTSYWIGWVRQMPGKGLEWMGIIYPGDSDTRYSPSFQGQVILSADKSISTAYLQWSSLKASDTAMYYCARHDESSGYYYVFDIWGQGTMVTVSS
VL: SYELTQPPSVSVSPGQTARITCSGDALPKKYAYWYQQKSGQAPVLVIYEDIKRPSGIPERFSGSSSGTMATLTISGAQVEDEADYYCYSTDSSGNHWVFFGGGTKLTVL
notes: Fully human XenoMouse mAb; also called sc 097
B14: sc 58 (antibody, V domains shown)
VH: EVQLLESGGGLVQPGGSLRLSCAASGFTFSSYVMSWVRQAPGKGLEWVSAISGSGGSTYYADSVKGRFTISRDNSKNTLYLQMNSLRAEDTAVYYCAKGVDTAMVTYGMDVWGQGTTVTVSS
VL: SYELTQPPSVSVSPGQTARITCSGDALPKKYAYWYQQKSGQAPVLVIYDDSKRPSGIPERFSGSSSGTMATLTISGAQVEDEADYYCYSTDSSGNHRVFGGGTKLTVL
notes: Fully human XenoMouse mAb; also called sc 058

Assays:
cynomolgus αVβ6 on cells [1] = target: T2, cynomolgus αVβ6 on cells (cynomolgus); assay: FACS, supernatant, HEK-293 cells transfected with cynomolgus αV and β6
T2 construct: whole, on cells; also called macaque αVβ6; Mac AVB6
Experimental: The assays were performed as follows. […] The cells were then pelleted, the supernatant discarded, and resuspended in FACS buffer and incubated for 30 minutes at 37° C. Cells were then washed twice with FACS buffer and resuspended in a final volume of 100 μL FACS buffer per well.
HEK-293 cells were transiently transfected with cynomolgus αV and cynomolgus β6. After 48 hours, the cells were collected and resuspended in FACS buffer to reach a final concentration of approximately 50,000 cells in 100 μL.
Approximately 100,000 cells total, comprising a 50:50 mix of CFSE-labeled A375M cells and transfected 293 cells, were used in each reaction as follows. 100 μL of CFSE-labeled A375M cells and 100 μL of 293 cells were dispensed into a V-bottom plate. The cells in the plate were pelleted at 1500 rpm for 3 minutes, and then resuspended in 100 μL FACS buffer. The pelleting step was repeated, and the FACS buffer supernatant was removed. The harvested antibody-containing supernatants, or control primary antibodies were added in a volume of 50 μL and the cells were resuspended. […] The plate was incubated on ice for 45 minutes, after which 100 μL FACS buffer was added to dilute the primary antibody. The cells were then pelleted by centrifuging at 1500 rpm for 3 minutes, and the pellet was resuspended in 100 μL FACS buffer. The pelleting step was repeated, and the FACS buffer supernatant was removed. Cells were then resuspended in the appropriate secondary antibody (5 μg/ml) with 7AAD dye (10 μg/ml), and stained on ice for 7 minutes. Then 150 μL of FACS buffer was added and the cells were pelLeted at 1500 rpm for 3 minutes, after which the cells were washed in 100 μL FACS buffer, pelleted, and then resuspended in 250 μL buffer and added to FACS tubes. Samples were analyzed on a high throughput FACS machine and analyzed using Cell Quest Pro software.

cynomolgus αVβ6 on cells [2] = target: T2, cynomolgus αVβ6 on cells; assay: FACS, purified mAb, transiently transfected HEK-293 cells (parental cells 49)
Experimental: (§1) Cross-reactivity of the mAbs to macaque and mouse αVβ6 was tested on the purified mAbs using FACS analysis on HEK-293 cells transiently transfected with cynomolgus or mouse αV, β6, or αVβ6. Approximately 48 hours after transfection, the cells were collected and resuspended in FACS buffer to reach a final concentration of approximately 50,000 cells in 100 μL.
(§2) Approximately 100,000 cells total, were used in each reaction as follows. 200 μL of 293 cells were dispensed into a V-bottom plate. The cells in the plate were pelleted at 1500 rpm for 3 minutes, and then resuspended in 100 μL FACS buffer. The pelleting step was repeated, and the FACS buffer supernatant was removed. The purified mAbs, or control primary antibodies were added in a volume of 50 μL and the cells were resuspended. […] The plate was incubated on ice for 45 minutes, after which 100 μL FACS buffer was added to dilute the primary antibody. The cells were then pelleted by centrifuging at 1500 rpm for 3 minutes, and the pellet was resuspended in 100 μL FACS buffer. The pelleting step was repeated, and the FACS buffer supernatant was removed. Cells were then resuspended in the appropriate secondary antibody (5 μg/ml) with 7AAD dye (10 μg/ml), and stained on ice for 7 minutes. Then 150 μL of FACS buffer was added and the cells were pelleted at 1500 rpm for 3 minutes, after which the cells were washed in 100 μL FACS buffer, pelleted, and then resuspended in 250 μL buffer and added to FACS tubes. Samples were analyzed on a high throughput FACS machine and analyzed using Cell Quest Pro software.

mouse αVβ6 on cells = target: T3, mouse αVβ6 on cells (mouse, UniProt P43406 31-1044; Q9Z0T9 22-787); assay: as above
T3 construct: whole, on cells; also called Mouse alphaVbeta6
Experimental: as §1, §2

[3] = target: T4, cynomolgus αV on transfected HEK-293 cells (cynomolgus, UniProt A0A2K5WCD3 31-1048); assay: as above
T4 construct: Chain transfected alone; also called Cynomolgus alphaV
Experimental: as §1, §2

soluble αVβ6 = target: T5, soluble αVβ6 (human, UniProt P06756 31-992; P18564 22-709); assay: competition ELISA: soluble αVβ6 (250 ng/ml) pre-incubated with the mAb, then binding to plate-coated GST-LAP, bound αVβ6 detected with mAb 2075
T5 construct: extracellular domain; also called soluble antigen; soluble αVβ6 protein
Experimental: The wells were then washed three times using 300 μL/well of assay diluent. […] The wells were then washed three times using 300 μL/well of assay diluent, and incubated with goat anti-mouse IgG Fc-peroxidase at 400 ng/ml in assay diluent (50 μL/well) for one hour at room temperature. The wells were then washed three times using 300 μL/well of assay diluent, and developed using 1-step TMB (Neogen) at a total volume of 50 μL/well. After 15 minutes, the developing reaction was quenched with 50 μL/well of 1N Hydrochloric acid.

[4] = target: T1, cynomolgus β6 on transfected HEK-293 …; assay: FACS, purified mAb, transiently transfected HEK-293 cells
Experimental: as §1, §2

cynomolgus αVβ6 on cells [5] = target: T2, cynomolgus αVβ6 on cells; assay: as above
Experimental: as §1, §2

[6] = target: T4, cynomolgus αV on transfected HEK-293 …; assay: as above
Experimental: as §1, §2

[7] = target: T6, human αVβ6 integrin on cells (human, UniProt P06756 31-1048; P18564 22-788); assay: FACS titration on K562 cells stably expressing human αVβ6, Cy5 goat anti-human detection, averaged geometric mean fluorescence
T6 construct: whole, on cells; also called alphaVbeta6
Experimental: K562 cells expressing αVβ6 were resuspended in filtered HBS buffer containing 1 mM of MgCl₂ and 1 mM of CaCl₂ at a concentration of approximately 6 million cells/mL. The cells were kept on ice. […] The 12th well in each row contained buffer only. Titrations were done in triplicate. Additional HBS and cells were added to each well so that the final volume was 300 μL/well and each well contained approximately 120,000 cells. […] The plates were then shaken for 40 minutes at 4° C., and thereafter were spun and washed once again three times with HBS. The Geometric Mean Fluorescence (GMF) of 20,000 “events” for each mAb concentration was recorded using a FACSCalibur instrument, and the corresponding triplicate titration points were averaged to give one GMF point for each mAb concentration. A plot of the averaged GMF as a function of molecular mAb concentration with Scientist software was fit nonlinearly using the equation:

[8] = target: T6, human αVβ6 integrin on cells; assay: FACS, 293T-αVβ6 cells, 5 ug/ml
Experimental: (§3) Cells were divided between reactions in a V-bottom 96-well plate (Sarstedt), and the cells in the plate were pelleted at 1500 rpm for 3 minutes, after which the HBSS supernatant was removed. The primary antibody was added at the concentration indicated in Table 19 in a volume of 50 μL, and the cells were resuspended and thereafter incubated on ice for 60 minutes. After incubation, the cells were pelleted by centrifugation at 1500 rpm for 3 minutes, resuspended in 100 μL wash buffer, and then pelleted again. Cells were then resuspended in the appropriate secondary antibody at 2 μg/ml with 10 μg/ml 7AAD, and stained on ice for 7 minutes, after which 150 μL of wash buffer was added, and cells were pelleted at 1500 rpm for 3 minutes and then resuspended in 100 μL of HBSS with 1% BSA. Samples were read on a FACS machine with a HTS attachment and the data was analyzed using Cell Quest Pro software.

[9] = target: T6, human αVβ6 integrin on cells; assay: FACS, 293T-αVβ6 cells, 20 ug/ml
Experimental: as §3

[10] = target: T6, human αVβ6 integrin on cells; assay: FACS, 293T-αVβ6 cells, 1.25 ug/ml
Experimental: as §3

[11] = target: T6, human αVβ6 integrin on cells; assay: FACS titration on K562 cells stably expressing human αVβ6, done as in Example 18, averaged geometric mean fluorescence

T6 sequence (P06756 31-1048, one chain of several): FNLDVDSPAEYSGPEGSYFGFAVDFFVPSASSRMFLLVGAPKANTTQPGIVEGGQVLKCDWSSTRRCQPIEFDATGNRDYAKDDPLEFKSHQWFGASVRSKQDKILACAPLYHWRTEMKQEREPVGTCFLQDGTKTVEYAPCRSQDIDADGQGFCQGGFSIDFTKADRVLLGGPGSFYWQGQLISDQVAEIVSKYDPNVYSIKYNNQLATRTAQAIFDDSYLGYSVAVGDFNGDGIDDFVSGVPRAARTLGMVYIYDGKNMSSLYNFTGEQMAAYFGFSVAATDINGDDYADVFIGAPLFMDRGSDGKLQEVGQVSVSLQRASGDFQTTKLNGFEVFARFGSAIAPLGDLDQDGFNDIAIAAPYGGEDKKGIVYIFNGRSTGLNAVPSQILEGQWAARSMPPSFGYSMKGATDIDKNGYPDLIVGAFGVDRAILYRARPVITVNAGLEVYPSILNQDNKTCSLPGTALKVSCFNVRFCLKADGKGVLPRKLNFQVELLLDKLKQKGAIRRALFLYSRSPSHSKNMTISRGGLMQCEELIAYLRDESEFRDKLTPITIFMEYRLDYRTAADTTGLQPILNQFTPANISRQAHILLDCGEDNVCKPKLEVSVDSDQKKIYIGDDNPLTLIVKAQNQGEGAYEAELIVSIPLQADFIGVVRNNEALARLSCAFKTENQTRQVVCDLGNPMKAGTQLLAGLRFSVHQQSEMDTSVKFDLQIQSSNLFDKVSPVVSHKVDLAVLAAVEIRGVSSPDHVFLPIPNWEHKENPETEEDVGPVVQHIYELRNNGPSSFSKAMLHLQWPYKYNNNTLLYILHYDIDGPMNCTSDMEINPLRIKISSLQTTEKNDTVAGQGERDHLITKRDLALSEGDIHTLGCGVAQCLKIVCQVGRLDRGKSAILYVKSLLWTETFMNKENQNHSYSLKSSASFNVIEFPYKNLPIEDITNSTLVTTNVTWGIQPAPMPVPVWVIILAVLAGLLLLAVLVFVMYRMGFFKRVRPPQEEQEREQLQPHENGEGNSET
T5 sequence (P06756 31-992, one chain of several): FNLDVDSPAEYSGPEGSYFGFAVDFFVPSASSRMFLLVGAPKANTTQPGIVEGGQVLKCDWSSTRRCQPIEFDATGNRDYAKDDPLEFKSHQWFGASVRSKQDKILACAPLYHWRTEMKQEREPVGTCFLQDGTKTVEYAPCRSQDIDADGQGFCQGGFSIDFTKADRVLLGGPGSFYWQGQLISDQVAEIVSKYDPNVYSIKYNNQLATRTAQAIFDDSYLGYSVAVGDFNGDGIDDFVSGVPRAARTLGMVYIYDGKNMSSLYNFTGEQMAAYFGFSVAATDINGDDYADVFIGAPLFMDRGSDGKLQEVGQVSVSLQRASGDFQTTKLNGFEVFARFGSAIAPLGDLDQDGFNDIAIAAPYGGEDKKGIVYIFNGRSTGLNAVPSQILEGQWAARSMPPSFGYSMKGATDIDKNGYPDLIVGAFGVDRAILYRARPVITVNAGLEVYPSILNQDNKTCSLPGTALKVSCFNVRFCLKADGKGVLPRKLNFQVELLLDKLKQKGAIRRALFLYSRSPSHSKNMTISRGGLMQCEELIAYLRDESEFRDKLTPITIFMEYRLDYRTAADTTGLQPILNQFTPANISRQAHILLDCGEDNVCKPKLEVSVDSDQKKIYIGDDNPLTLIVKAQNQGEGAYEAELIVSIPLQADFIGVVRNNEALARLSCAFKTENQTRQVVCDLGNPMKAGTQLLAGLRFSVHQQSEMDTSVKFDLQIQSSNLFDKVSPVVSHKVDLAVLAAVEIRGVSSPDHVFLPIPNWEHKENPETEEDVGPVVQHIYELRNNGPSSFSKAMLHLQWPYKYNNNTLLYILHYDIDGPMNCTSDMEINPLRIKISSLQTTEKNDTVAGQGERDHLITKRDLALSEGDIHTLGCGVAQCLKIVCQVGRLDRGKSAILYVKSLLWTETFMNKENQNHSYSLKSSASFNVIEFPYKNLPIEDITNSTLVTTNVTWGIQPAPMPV
T4 sequence (A0A2K5WCD3 entry or part of it limits assumed): as the sequence (P06756 31-1048, one chain of several) above, with M118L, L264I, E270D, R562W, S609F, N660S, V753I, T840A counted along it
T3 sequence (P43406 31-1044, chain 1 of 2): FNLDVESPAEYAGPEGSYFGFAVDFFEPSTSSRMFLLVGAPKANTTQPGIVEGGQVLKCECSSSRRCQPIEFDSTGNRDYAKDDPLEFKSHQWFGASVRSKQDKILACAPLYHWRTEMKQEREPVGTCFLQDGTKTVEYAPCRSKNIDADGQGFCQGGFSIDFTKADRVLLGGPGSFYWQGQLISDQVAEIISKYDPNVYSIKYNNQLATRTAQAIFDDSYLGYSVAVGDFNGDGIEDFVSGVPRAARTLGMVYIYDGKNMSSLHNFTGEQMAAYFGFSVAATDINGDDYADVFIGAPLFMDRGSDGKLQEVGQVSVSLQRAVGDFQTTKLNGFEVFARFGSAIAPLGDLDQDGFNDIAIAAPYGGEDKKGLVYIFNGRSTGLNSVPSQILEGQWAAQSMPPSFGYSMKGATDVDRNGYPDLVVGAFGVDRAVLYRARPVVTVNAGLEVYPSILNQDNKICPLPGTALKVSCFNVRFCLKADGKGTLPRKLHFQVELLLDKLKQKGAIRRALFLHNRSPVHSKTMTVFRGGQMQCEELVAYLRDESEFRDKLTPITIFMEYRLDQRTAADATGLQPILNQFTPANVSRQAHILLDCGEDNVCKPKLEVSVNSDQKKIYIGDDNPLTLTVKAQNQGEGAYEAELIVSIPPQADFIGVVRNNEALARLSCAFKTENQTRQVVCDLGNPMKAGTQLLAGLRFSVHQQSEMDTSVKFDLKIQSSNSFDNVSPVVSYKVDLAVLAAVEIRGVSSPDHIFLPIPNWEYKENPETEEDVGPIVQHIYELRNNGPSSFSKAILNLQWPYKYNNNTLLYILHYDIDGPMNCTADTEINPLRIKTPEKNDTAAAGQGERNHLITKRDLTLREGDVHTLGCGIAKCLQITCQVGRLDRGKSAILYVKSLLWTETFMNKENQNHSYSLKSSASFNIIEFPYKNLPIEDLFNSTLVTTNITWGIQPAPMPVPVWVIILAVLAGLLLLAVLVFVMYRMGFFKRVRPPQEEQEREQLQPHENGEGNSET
T3 sequence (Q9Z0T9 22-787, chain 2 of 2): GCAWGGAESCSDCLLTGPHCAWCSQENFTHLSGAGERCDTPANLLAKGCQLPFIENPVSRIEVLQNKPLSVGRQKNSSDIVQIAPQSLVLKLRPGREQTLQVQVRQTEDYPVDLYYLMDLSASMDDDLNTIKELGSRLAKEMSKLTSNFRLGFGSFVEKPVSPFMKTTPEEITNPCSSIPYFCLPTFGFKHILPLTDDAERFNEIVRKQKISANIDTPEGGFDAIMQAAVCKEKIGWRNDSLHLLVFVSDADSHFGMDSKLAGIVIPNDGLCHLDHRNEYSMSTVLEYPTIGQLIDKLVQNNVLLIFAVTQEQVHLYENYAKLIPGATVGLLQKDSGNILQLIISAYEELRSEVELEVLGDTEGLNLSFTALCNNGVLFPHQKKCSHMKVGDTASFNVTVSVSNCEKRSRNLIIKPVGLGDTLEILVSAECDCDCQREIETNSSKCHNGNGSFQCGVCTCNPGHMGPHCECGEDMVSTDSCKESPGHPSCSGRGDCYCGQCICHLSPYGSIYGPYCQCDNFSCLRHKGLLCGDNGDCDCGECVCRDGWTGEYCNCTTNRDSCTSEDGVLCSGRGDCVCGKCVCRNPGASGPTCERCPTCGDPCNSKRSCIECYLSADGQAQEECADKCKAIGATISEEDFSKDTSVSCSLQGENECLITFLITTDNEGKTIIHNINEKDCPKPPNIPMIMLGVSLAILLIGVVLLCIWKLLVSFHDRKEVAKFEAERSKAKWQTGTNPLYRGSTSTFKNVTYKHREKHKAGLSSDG

Binder | Mac AVB6 % Cells Shifted (cynomolgus αVβ6 on cells [1]) [%] | Mac AVB6 GeoMean (cynomolgus αVβ6 on cells [1]) | other results
B1 | 35 | 33.4 | 
B2 | 19 | 33.5 | 
B3 | 53 | 63.1 | percent of cells shifted (cynomolgus αVβ6 on cells [2]): 38%; percent of cells shifted (mouse αVβ6 on cells): 53%; percent of cells shifted [3]: 48%; IC50 (read off the curve) (soluble αVβ6): ~0.2 µg/mL
B4 |  | 61.8 | 
B5 | 32 | 35.2 | percent of cells shifted [4]: 10%; percent of cells shifted (cynomolgus αVβ6 on cells [5]): 28%; percent of cells shifted [6]: 5%
B6 |  | 23.9 | EC50 (read off the curve) [7]: ~0.06 nM; IC50 (read off the curve) (soluble αVβ6): ~0.2 µg/mL
B7 |  |  | Geometric Mean Shift [8]: 6820 arbitrary units; Geometric Mean Shift [9]: 6760 arbitrary units; Geometric Mean Shift [10]: 4530 arbitrary units
B8 |  | 78.5 | IC50 (read off the curve) (soluble αVβ6): ~0.3 µg/mL
B9 | 23 | 30.2 | 
B10 | 14 | 33 | 
B11 | 55 | 66.4 | 
B12 |  |  | Geometric Mean Shift [8]: 6840 arbitrary units; Geometric Mean Shift [9]: 7240 arbitrary units; Geometric Mean Shift [10]: 4890 arbitrary units; EC50 (read off the curve) [11]: ~0.08 nM
B13 | 35 | 37 | 
B14 | 25 | 22.8 | 
